The target of the experiment is Mayaro virus (MAYV) capsid (C) protein, strain IQT4235 (Mayaro virus (strain IQT4235)). Kind of experiment: cryo-EM structure; purified mature infectious MAYV virions (5x10^10 PFU/mL, from Vero CCL81 cells) vitrified on Quantifoil R2/2 grids; 300 kV Titan Krios, single particle analysis with icosahedral symmetry, global resolution 4.4 Å; atomic model from a homology model on CHIKV (PDB 6NK5) refined into the map.

“And” between values parts separate entries of the source, which are not always exact repeats. Equal values may be shown once.

“Mayaro virus (MAYV) capsid (C) protein, strain IQT4235 (natural protein)”: the stoichiometry N is 6 and 5.

Usually stoichiometry N stands for a count of units in the complex or per binding partner.

Source of the values: PMC8144435.
